# Results published in paper PMC4736712, “Direct α-synuclein promoter transactivation by the tumor suppressor p53”.
# B1: alpha-syn promoter probe (p53 half-site) (dsDNA)
# DNA 1: CCTTTCGCTGGAGACATGCCCTTCCATCCTGTCAAAGCCC
# DNA 2: GGGCTTTGACAGGATGGAAGGGCATGTCTCCAGCGAAAGG
# B2: unlabeled specific competitor (comp-sp) (dsDNA)
# DNA 1: B1 DNA 1
# DNA 2: B1 DNA 2
# What was measured:
# [1] = target: T1, p53 (wild-type recombinant, p53r) (UniProt P04637 1-393); assay: EMSA; 200 ng p53, 20 fmol probe; shift blocked by anti-p53 pab421 or DO1; 1X binding buffer (Promega), 100 ng poly(dI-dC), 10 mM DTT, 1 mg/ml BSA, 4 °C, 30 min; 5% native PAGE at 4 °C; salt and pH not stated; details: protein: commercial; chain copies: 4; label: 5' biotin; blunt
# [2] = target: T1, p53 (wild-type recombinant, p53r); assay: competition EMSA; 4 pmol cold competitor (200-fold excess) blocks shift of N1; 1X binding buffer (Promega), 100 ng poly(dI-dC), 10 mM DTT, 1 mg/ml BSA, 4 °C, 30 min; 5% native PAGE at 4 °C; salt and pH not stated; details: protein: commercial; chain copies: 4; blunt
# T1 sequence (P04637 whole entry): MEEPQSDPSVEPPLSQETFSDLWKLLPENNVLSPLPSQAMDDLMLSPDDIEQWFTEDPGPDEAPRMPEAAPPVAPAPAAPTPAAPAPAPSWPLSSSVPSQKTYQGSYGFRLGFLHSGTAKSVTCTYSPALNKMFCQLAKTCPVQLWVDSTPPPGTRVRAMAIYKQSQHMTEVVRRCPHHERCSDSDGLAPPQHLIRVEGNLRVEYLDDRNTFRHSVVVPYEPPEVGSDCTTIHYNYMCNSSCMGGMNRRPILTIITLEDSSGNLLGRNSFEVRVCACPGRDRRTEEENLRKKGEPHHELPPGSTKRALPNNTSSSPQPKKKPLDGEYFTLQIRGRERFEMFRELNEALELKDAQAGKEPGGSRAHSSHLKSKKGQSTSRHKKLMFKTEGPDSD
Binder,binding result [1],binding result [2]
B1,binds,
B2,,binds
